Assay results taken from article PMC5562350.

B1: DH270.6 (antibody, V domains shown)
VH: QVQLVQSGAQMKNPGASVKVSCAPSGYTFTDFYIHWLRQAPGQGLQWMGWMNPQTGRTNTARNFQGRVTMTRDTSIGTAYMELRSLTSDDTAIYYCTTGGWISLYYDSSYYPNFDHWGQGTLLTVSS
VL: QSALTQPASVSGSPGQSITISCTGTKYDVGSHDLVSWYQQYPGKVPKYMIYEVNKRPSGVSNRFSGSKSGNTASLTISGLRAEDEADYYCCSFGGSATVVCGGGTKVTVL

These molecules were tested against Man9-V3 glycopeptide (HIV-1 (strain not stated)).

Molecule	Kd
DH270.UCA (antibody)	> 10 µM
DH270.1 (antibody)	0.331 µM
DH270.IA4 (antibody)	> 10 µM
DH270.IA2 (antibody)	> 10 µM
DH270.IA3 (antibody)	> 10 µM
B1	0.188 µM
